According to the DeepSol protein solubility set:

Assay: soluble on expression in E. coli; label from the status in PepcDB or PDB records

Sequence	soluble on expression in E. coli
GPGSMTGRTSSVSENHLGFSAEGGVVNYALLQPHRTEAERRPLAPSEVAQHLMASAAAASGATHSATGGSGAHTMRQCTPKELATRSSKVVTLYDLAGHERYLKTTVLGMTRNMPDYACIVISANNGIQRMTKEHLALCLALKLPFFIVVTRIDSTPPNIHDETLSNIHKLLKIPTVRKLSYPVRRHDEVTLAAKNCAMIALPRSSKSATLPVLASLTYCNSLTYSRLGRTGGRRATCQRR	not soluble
GMKQDSIITLHPDDRSEQTAEIMRRFNDVFQLHDPAALPELIAEECVIENTVPAPDGARHAGRQACVQLWSAIATQPGTRFDLEETFVAGDRATIRWRYWMADGNSVRGVNLMRVQDGRIVEAMGYVKG	soluble
MGSDKIHHHHHHALGGCGLVPKQPITQQPMTALPPMPPQAQSPGSIFNPGYAGRPLFEDQRPRNVGDILTIVIQENVNATKSSGANANRSGNTNFNVPTAGFLGGLFGKTNLSATGANVFSGTGGANASNTFNGTITVTVTGVLPNGNLMVSGEKQMLINQGDEFVRFSGVVNPNTISNLNAVYSTQVADAKIEYSAKGYLNEAENMGWLQRFFLNVSPW	not soluble
MGSDKIHHHHHHMTQEDKKLSCTDCALLNCHKKDKTFPQFCLTTHTPEETIEGVNELYRKDDFVAKLSNAAAEIEGTYYGKLTRVEEIMAFAKRIGAKKIGIATCVGLMSEARIFAKILKAKGLESYGIICKVGAVDKTQVGVPEELKVNKGCHESLCNPVLQATLLNEEKTDLNVIVGLCVGHDSLFIKYSEAPVTTLITKDRVLGHNPAAALYASGFYYRRLLQEGDL	not soluble
MTAVPLPILHLPHNALQMSLKQMSTVEHLALSFVSNKTRRLIKMLKEKNHITCISMGSPISIDFLSLTFDYKSNQKIVKIDNPEQNGSLSRLNLPGFTEKQWIEHFANVFIQNKKVMLISDLGERKIEDIYESIKDLNIVTLDIMTSEFQDCKLFKLFPTLEELGVSETPLSAPIFVQNFQSLTAIDVTLDDILSSNCTNLCLDDQLISDKDLNIFMRNWIKGSNPRLRKLTNTSVRHERDISDSVFFRGISQIKTRDWCDEDTFDKEFEIKNEDGVRAKVTLSTFSFIFCIEDF	not soluble
MTNELLIEIGTEELPAGVINPALDYLKDKINSLLNARQVKTYGTPRRLTLYFKDFENERKEKKEVIWGPPKNVAYDEKGNPTKALEGFLKKNNASLEEVKVLKKDKGEYVAIVRKVIEKSPIEKLQEEFEEILLSVPFPKRMRWTSSKRITFSRPVRWILALFNGQVLKLRFGELESSNKTYGHRFLSKGEVTINNPADYEKTLKEHYVIPDFNERKEIILRALEKSSQEVGGKPSYPEGLVEEVTNLVEYPFPVLGKFDEKYLELPPLVITTVAAHHQRFFCFEKDGKLLNYFLGISNNKPNEKIKEGYEKVLRARLEDALFFYREDLKKDLKSLIPELKKVLFHPKVGSMYEKEERMEKIAQKLCPLLKCEWEKVKEAVWLSKVDLLTEMVKELDELQGYMGYVYAKAQGYDEEVAKALWEQYFPRSLEDKVPETTTGTILSLSDKIDNLYSFFKAGEIPKGSSDPYGLRRSAFGIIKIVDVKNLDLNLEDFKEIYGEFKQYPKLVEFLKQRLISYLEDYPVDIVRAVLNVYSPMEPYKVINSVRVLYEASKSPEFPSVVEAAKRVIRIIPKDWKNYEVDEKLLSEEAERELYQKLTEFENKELKSPLELLPLKEYIDKFFDNVKVMAEDEKIRNNRISLLKRVENLFRTFGDFNEIVIKEG	soluble
MNNLPLLNDLRVFMLVARRAGFAAAAEELGVSPAFVSKRVSLLEQTLNVMLLHRTTRRVTITEEGERIYEWAQRILQDVDEMMDELSDVRQVPQGTLRIISSFGFGRRVVAPALSALALQYPQLELRFDVQDRLVDLVNEGVDLDIRVGDDIAPNLIARQLAANHRVLCASPQFLARHAPPKQLSDLAALPCLVIKERDHPFGVWQLHSKEGQHAIKVTGPLSSNHGEIVHQWCLDGQGIALRSWWDVRENIASGHLVQVLPDYWQPANVWAVYVSRLATSAKIRTTVEFLRHYFQLHYPQHEPTASAVGRGD	not soluble
MEFLKLSEGKTKEVYAYDDSHVLLKFKDSITAGDGARKDILEGKGILNAQTSAFLFRLLESKGIETHYIGMFDERTMIAKKLKMIPVEVVLRNIATGSIVKRLPIKEGEVFEPPIIEFFLKDDERHDPMLNYYHMEYLKLMTRKEAEKIEEIMLKVNEILYPFFRSKKLLLYDFKLEFGRVNDKLIIGDELTLDSMRIREEGSGRILDKDLYRKGADLETVKKAYEEFFKRISE	soluble
MGSDKIHHHHHHMISNLYFVKLKNIGEHEFIKRYIKNYMDIKLLDDVFINEKRGYKVDGFKLSYAFPFMSLYDIGWKAISASTSDIIAKGVKPEFYLISLGLPPDFDVNKAEELIGGISDAIHYYGGRYVGGDLNDSDSNGWVDVFVEGEVLCDISDKVIDDGDLLVIGDYIGYTTNVFISYINNFNIQILPESLLKVKHPIVKKSLLFFMKKYCKFIKYSTDISDGLMVSLYKIVDNFNLGINITEIPIDKNVFNSLKLRLNLTELDILKYAGEEFLPLLIIDKNSPVKEMLAELQYLAFNPLIIGQVIHENRLITYKNTVIKNTGWDNFIGWY	not soluble
MKDTTRNTYLAVDFGGGSGRVIAGSLLQGKLELEEIHRFTNRQVKLGNHVYWDFPALFEDMKTGLKLAAQKGYHVKGIGIDTWGVDFGLIDKKGNLLGNPVCYRDARTDGMPDKVFQILDAQKHYACTGIQVMPINTLFQLYSMQQNQDVLLEVAQRLLFMPDLFSYYLTGVANNEYCIASTSELLDARQRNWSMDTIRALGLPEHLFGEIILPGTVRGTLKEEIGRETGLGPVDIIAVGSHDTASAVAAVPATEGQVAFLSSGTWSLLGVEVDEPILTEEARLAQFTNEGGVGGHIRFLQNITGLWILQRLMSEWKLRGEEQSYDTILPQAADAEIDTIIPVDDAEFMNPENMETALLNYCRNHSLKVPGNKAEMVKCVLQSLAFKYREAVAQLNRCLPSPIHRLNIIGGGSQNKLLNQLTANALGIPVYAGPVEATAMGNILTQAMAKGEISSLREIREVVSHSVTPQVYYPEK	not soluble
GPGYNEPQDKKTMMMNEEDDGNGMDELLAVLGYKVRSSEMADVAQKLEQLEVMMSNVQEDDLSQLATETVHYNPAELYTWLDSMLTDLNPPSSNAEYDLKAIPGDAILNQ	soluble
TKLSPELLVKLGSEGVLAGVKDSSGDDVSFRRLVMLNKKAGSPLTLLTGHEAVVDGAFIAGADGCVPGLGNVDPAGYVRMWKAAEAGDWATVQKEQDRLAALFEIVFQPIGKVGPAAGVGSFKTALE	not soluble
MSALKSFTVNFHQEDNAKATTVHKLSEEDFNKATEKGTRHLFDLDTNVGFFVFFDAEDAEGNDQYLMLQYEGDHEEPTACYGFDLKLYYQFLALYLNDLEFQGETDEEEEEYGPIHHLAHLLYHIVEDGKSIEV	not soluble
MGLREIEKVTVFCLANENTDISYEVNRALGEIRIYVPYDFMDFLALNSVEEKYKEFCKLVRQYVVPGLEENSTLSSSVVKGYIEESLDEIVKQNYEGIFLVGKTPKKSPSRKKIAILKGIHRVKGFQLRCEVYDEKGLKIRDQLLVEEVGNEMVYSRFLGTLKWESENLIVVQSKSSSWKEEIYL	not soluble
MGSDKIHHHHHHMELNIPLVLQNKTPIYLQIYEYMKREISHGSLCAGTRLPSHRNLAMQLNVSRITVESAYQQLLAEGYVESKPKRGIFVAEVDIDVIQKKQQIVSNSANNKEKEQYDYDCSQGLIDQKAFPITNWKRALHETLFQYENELFAKEDPQGELVLREHISKYLYHARGVHSSPDQIIIGAGTQPLLWLLLQLLGSKKEYGIENPGFHRIPAMIQSSGLPVHPIPLDDKGIHISALRESGSNVAYVTPSHQFPLGIIMPLSRRLELLKWANDCKGYIVEDDYDGEFRYIGKPIPSLQGLDSNERVIYMGTFSKSFLPSLRMGYIVLPPHLLKTYKELGGMYKQTVSTMQQLTFATFIQSGDWERHINRSRTLYKRKHISLIKSITNEMGNNVHILGEQSGLHIVLHVHNGMNEQELIHAAAKQRIKLYPLSTYDSVHNVREESYVLLGFGSIPENRIETVVQLLKKAWFPK	not soluble
MSAEYGQYGYYGGAGGAQTTTTPAAALAASIPATSVYGEQRPTFSEDGTGAPYSTILNLVGSAAVNSDISYDTSSKDPHMIRARVFIGNIARAIITRDDIIELFRPFGKIIAVNYFAQQGFGFVQFNEAGSADESCRSLNGMSWKACCLDVHLAMLGSLRKPTGNEGRQGNTIAPAPLPVGKPLTQHAVDTSAQSAKRPYEDEEYEIFKQNKRNKQFANGDTTINEQLAPNEMCDTMVCGYCRFVTSDFEEFKEHRIAGCNKYKDPEEPRHRLKCATCSQRFLGAWGLLEHLTDFHRMLLYTEEKMTPNDLAQMRGGSVSTPSSIPETPASGSAAPAAPNSANSTPSHHIVEGAPLSYSSNNGTPQI	not soluble
MGSDKIHHHHHHMIDNIMAILEPVIGRTIKRKISTMSGKKLPFIAGHKLLYTCNLRCDMCPFWRRKDEKLLSLEEEIKMMDSLASAGVSFMGFEGGEPLLRNDLEDILKESHKRFHTSLVTNGWLLKGRASSISRYLDYLFVSIDGRKETHDKQRGVPSSFDHAIEGIKEAKKYVPVAMSTTITTNNMDDIKYVVNLAEELGIGVNIQVSYDYSTADKLSPDRKKLYDLLLDLKKMKEDGAPIVNSKEYFDTLVNSWYYGIPWACKPWSTVNIDPQGRIVMPCYVLNEYAGEKKVWEIDIKELWNTYDWKPYESCNKCSLSCYLEPSIFSWRKPSMVSERIFGSIADYIASIF	not soluble
SPASGPGPRRVQRRAWPPDKEQEKEKKSVICVEGNIASGKTTCLEFFSNATDVEVLTEPVSKWRNVRGHNPLGLMYHDASRWGLTLQTYVQLTMLDRHTRPQVSSVRLMERSIHSARYIFVENLYRSGKMPEVDYVVLSEWFDWILRNMDVSVDLIVYLRTNPETCYQRLKKRCREEEKVIPLEYLEAIHHLHEEWLIKGSLFPMAAPVLVIEADHHHMERMLELFEQNRDRILTPENRKHCP	soluble
MSKKLLIKTWGCQMNEYDSSKMADLLNAANGYELTEEPEEADVLLLNTCSIREKAQEKVFHQLGRWKTLKDKKPGVVIGVGGCVATQEGDHIRERAPYVDVIFGPQTLHRLPEMIKQSQTDDAPVMDISFPEIEKFDRLPEPRAEGATAFVSILEHHHHHH	not soluble
MSEKDQSVNNTEEDFNVETEDNQNDTNIENSVSNTDNSEANASDSENNSEESIKDEESESQDTKIKELEKLANDNEEKYLRLYAEFENYKRRIQKENQINATYKAQGVLTDILPSIDNIERALQIEGDDESFKSLQKGVQMVHESLLRALKDNGLEEILAEGKEFDPNLHQAVVQDDNPDFKSGEVTQELQKGYKLKDRVLRPSMVKVNQ	soluble
MRGSHHHHHHTDPALRATQKNFVELRNVTKRFGSNTVIDNINLTIPQGQMVTLLGPSGCGKTTILRLVAGLEKPSEGQIFIDGEDVTHRSIQQRDICMVFQSYALFPHMSLGENVGYGLKMLGVPRAELKARVKEALAMVDLEGFEDRFVDQISGGQQQRVALARALILKPKVLLFDEPLSNLDANLRRSMRDKIRELQKQFDITSLYVTHDQSEAFAVSDTVLVMNKGHIMQIGSPQDLYRQPASRFMASFMGDANLFPATFSDGYVDIYGYHLPRPLHFGTQGEGMVGVRPEAITLSDRGEESQRCVIRHVAYMGPQYEVTVEWHGQEILLQVNATRLQPDVGEQYYLEIHPYGMFVLADAAGLCGR	soluble
MLSTIRYYYEHSLIEEKTKHQELSWQTPISRSLVTHDPSTGGIQLSKKNAMLNDAVTTTTTVEVFRAPTNTDMISLTPASNGGPPLLVRTNGPQYEQWNDRRVQTMMVDDDRRDLAKGVQWKERLIEESDRRYRDNGSDFYDEITEPTQFIHHDYRPKPLGFQTITHPIIMTGSRDDLRSQPPQYPAPLSPLYIVPDRHRNIANSVSPGQYSRRSNGYEDRRKDTEELRDERKRENEQNQNRERYHHRRSKSSNRDDASVSHRSLRHRSMSPASRRSFGTSLGGSQEFVIPAHSPIGSTLMLASPDPNELPGRPASAKSQEIFALYQTRDAYNRIVDQL	not soluble
